According to patent US20090220511A1 (RUTGERS THE STATE UNIVERSITY OF NEW JERSEY, published 2009):

What was measured:
[1] = biological target: FLAG tagged chimeric IL-10R1/CRF2-12 receptor (IL-10R1 extracellular domain fused to the transmembrane and intracellular domains of CRF2-12) on HT-29 cells (human) (UniProt Q13651); assay: cell-based or functional assay
[2] = biological target: T1, chimeric human CRF2-12/γR1 chain expressed alone on hamster 16-9 cells (human, UniProt P15260 246-489); assay: flow cytometry with anti-FLAG antibody on transfected hamster cells
T1 construct: domain: transmembrane and intracellular domains; On the cell surface of hamster 16-9 cells, without human CRF2-4; also called CRF2-12/IFN-γR1; CRF2-12/gR1
T1 sequence: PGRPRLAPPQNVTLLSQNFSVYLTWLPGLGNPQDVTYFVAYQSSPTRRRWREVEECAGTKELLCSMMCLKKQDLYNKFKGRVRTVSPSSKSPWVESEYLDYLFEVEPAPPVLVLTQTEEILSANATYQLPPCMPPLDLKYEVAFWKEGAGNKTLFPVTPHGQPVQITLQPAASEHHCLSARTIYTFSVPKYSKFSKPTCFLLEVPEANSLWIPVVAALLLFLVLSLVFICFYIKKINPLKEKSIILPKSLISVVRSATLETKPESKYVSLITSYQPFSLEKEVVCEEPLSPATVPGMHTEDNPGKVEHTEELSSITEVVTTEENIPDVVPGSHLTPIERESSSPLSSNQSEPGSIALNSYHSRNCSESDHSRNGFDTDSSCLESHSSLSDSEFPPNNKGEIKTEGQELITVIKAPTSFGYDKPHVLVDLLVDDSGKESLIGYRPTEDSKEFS
Method: (§1) A. Four cell lines used in these experiments are schematically shown (top panels): the parental Chinese hamster 16-9 cells and cells expressing the human CRF2-12/gR1 chimeric receptor or human IL-10R2 alone or both receptors together. […] The cells were also tested for their ability to bind FL-IFN-λs (panels E, F, G, H and I). The cells were incubated for three hours at 20° C. with conditioned medium from COS-1 cells transfected with one of the following plasmids: the control vector pEF-SPFL (open areas, thick lines); the pEF-FL-IFN-λ1 (FL-IFN-λ1; open areas, thin lines; panels E, F, G and H) or the pEF-FL-IFN-λ2 (FL-IFN-λ2; shaded areas, thin lines; panel I). […] Cells expressing both chains were co-incubated with either FL-IFN-λ1 or FL-IFN-λ2 ([…] of conditioned media from COS cells expressing FL-IFN-λ1/2) and with E. coli produced IFN-λ1 lacking the FLAG epitope (IFN-λ1E. coli, 1 mg/ml) (open areas, thin lines; panels H and I). Ligand binding to the cell surface was determined by flow cytometry with anti-FLAG antibody (Sigma) as the primary antibody and fluorescein isothiocyanate-conjugated goat anti-mouse IgG (Santa Cruz) as the secondary antibody. The ordinate represents relative cell numbers, and the abscissa relative fluorescence (logarithmic scale).

[3] = biological target: T2, intact human CRF2-4 chain expressed alone on hamster 16-9 cells (human, UniProt Q08334 20-325); assay: as above
T2 construct: whole, on cells; From plasmid pEF-CRF2-4 (pEF-IL-10R2), on hamster 16-9 cells without CRF2-12/γR1; also called IL-10R2
T2 sequence (looked up): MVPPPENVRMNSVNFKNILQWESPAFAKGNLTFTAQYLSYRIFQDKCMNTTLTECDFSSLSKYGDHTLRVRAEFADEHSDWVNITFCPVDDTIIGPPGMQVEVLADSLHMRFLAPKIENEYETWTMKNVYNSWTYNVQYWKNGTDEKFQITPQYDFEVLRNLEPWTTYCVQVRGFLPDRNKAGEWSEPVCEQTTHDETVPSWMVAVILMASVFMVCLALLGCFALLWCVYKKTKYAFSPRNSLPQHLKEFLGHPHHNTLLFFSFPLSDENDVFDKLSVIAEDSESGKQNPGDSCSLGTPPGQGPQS
Method: as §1

[4] = biological target: the molecule itself; assay: crosslinking of the 32P-labeled ligand to itself in solution, SDS-PAGE
Method: (§2) Untreated 32P-labeled FL-IFN-λ1-P ([32P]FL-IFN-λ1-P) was loaded as a control (lane 1). ([32P]FL-IFN-λ1-P) was also incubated in DMEM medium with 10% FBS and crosslinking in solution was performed as described (32) (lane 2). The untransfected and transfected hamster cells described in FIG. 22 row 1 were incubated with 32P-labeled FL-IFN-λ1-P with or without addition of a 100-fold excess of unlabeled IFN-λ1 (competitor), washed, harvested and crosslinked. The extracted crosslinked complexes were analyzed on 7.5% SDS-PAGE. The molecular weight markers are shown on the left.
(§3) In another embodiment of the present invention, the interaction between IFN-λ and its receptor was characterized by crosslinking (FIG. 22). Crosslinking experiments were performed with radiolabeled IFN-λ (FIGS. 20B and C) and the IFN-λ receptor chains expressed in hamster cells (FIG. 22). COS cell-expressed FL-IFN-λ1-P was purified to homogeneity and radiolabeled (FIGS. 20B and C). […] FL-IFN-λ1-P was labeled with [32P]ATP and used for crosslinking to cells as described (Li, et al., (1989) Proc Natl Acad Sci USA 86, 558-562; Kotenko, et al., (1995) J Biol Chem 270, 20915-20921; Pestka, et al., (1999) Protein Expr Purif 17, 203-214; Kotenko, et al., (2001) J Immunol 166, 7096-7103).

[5] = biological target: T1, chimeric human CRF2-12/γR1 chain …; assay: crosslinking of 32P-labeled ligand to transfected hamster cells, 7.5% SDS-PAGE
Method: as §2
as §3, with “7096-7103). […]” for “7096-7103).”

[6] = biological target: T2, intact human CRF2-4 chain expressed …; assay: as above
Method: as §2
as §3, with “7096-7103). […]” for “7096-7103).”

Sequence of FLAG tagged chimeric IL-10R1/CRF2-12 receptor (IL-10R1 extracellular domain fused to the transmembrane and intracellular domains of CRF2-12) on HT-29 cells (human) (Q13651 other isoform, or with tags, fused parts or gaps mutant limits assumed): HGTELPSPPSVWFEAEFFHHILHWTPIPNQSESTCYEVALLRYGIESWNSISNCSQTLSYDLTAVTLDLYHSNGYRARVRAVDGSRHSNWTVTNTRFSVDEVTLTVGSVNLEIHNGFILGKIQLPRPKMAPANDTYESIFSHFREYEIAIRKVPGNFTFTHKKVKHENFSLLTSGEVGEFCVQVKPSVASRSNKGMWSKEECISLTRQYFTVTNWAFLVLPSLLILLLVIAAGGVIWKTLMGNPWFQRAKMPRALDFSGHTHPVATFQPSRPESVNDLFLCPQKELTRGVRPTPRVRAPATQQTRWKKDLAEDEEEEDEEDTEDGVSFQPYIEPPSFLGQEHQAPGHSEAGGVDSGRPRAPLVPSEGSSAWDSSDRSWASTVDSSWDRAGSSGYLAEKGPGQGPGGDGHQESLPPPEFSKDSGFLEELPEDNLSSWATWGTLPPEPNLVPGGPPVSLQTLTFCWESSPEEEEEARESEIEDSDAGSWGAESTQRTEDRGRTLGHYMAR

With “IL-10 (from UniProt P22301 19-178) (ligand)” the MHC class I antigen induction and antiviral activity of HT-29 cells expressing FL-IL-10R1/CRF2-12 [1] was 1 ng/mL and the apoptosis of HT-29 cells expressing FL-IL-10R1/CRF2-12 [1] was over 10 ng/mL.

B1: FL-IFN-λ1 (IFN-λ1 tagged at its N-terminus with the FLAG epitope) (ligand, not shown: small tags and cut ends)
chain: PTSKPTPTGKGCHIGRFKSLSPQELASFKKARDALEESLKLKNWSCSSPVFPGNWDLRLLQVRERPVALEAELALTLKVLEAAAGPALEDVLDQPLHTLHHILSQLQACIQPQPTAGPRPRGRLHHWLHRLQEAPKKESAGCLEASVTFNLFRLLTRDLKYVADGNLCLRTSTHPEST
notes: Used as conditioned medium of transiently transfected COS-1 cells; also called FL-IFN-λ1gene product
B1: no binding [2]; no binding [3].

B2: 32P-labeled FL-IFN-λ1-P (ligand, not shown: small tags and cut ends)
chain: PTSKPTPTGKGCHIGRFKSLSPQELASFKKARDALEESLKLKNWSCSSPVFPGNWDLRLLQVRERPVALEAELALTLKVLEAAAGPALEDVLDQPLHTLHHILSQLQACIQPQPTAGPRPRGRLHHWLHRLQEAPKKESAGCLEASVTFNLFRLLTRDLKYVADGNLCLRTSTHPESTRRASVA
modifications: labeled with [32P]ATP on the C-terminal Arg-Arg-Ala-Ser-Val-Ala tag (consensus site of the cAMP-dependent protein kinase)
notes: Expressed in COS cells, purified on anti-FLAG M1 gel and radiolabeled; Primer ifnl-7R may encode extra junction residues before the RRASVA tag; also called [32P]FL-IFN-λ1-P; radiolabeled IFN-λ
B2: no binding [4]; no binding [5]; no binding [6].
